Results published in patent US10894986B2, “Compositions and methods for treating or preventing prostate cancer and for detecting androgen receptor variants” (The Johns Hopkins University, priority 2008, dated 2021).

Columns and labels:
LNCaP cells = assay: MTS cell growth assay of transfected LNCaP cells; format: cell-based, human; settings: charcoal stripped serum, absence or presence of 0.5 nM R1881
Protocol: LNCaP cells were transfected by AR-V7 and the control vector. A. Cell growth in medium supplemented with charcoal stripped serum (CSS) in absence or presence of 0.5 nM R1881 were monitored by MTS assay. Ectopic expression of AR-V7 in LNCaP cells was confirmed by western blot analysis (B). As shown the growth rates of AR-V7 expressing cells surpassed those of parental cells cultured in the presence of synthetic androgen R1881.

PSA reporter gene = settings: exogenously transfected, AR-negative PC-3 cells, presence or absence of R1881
Source text: PC-3 cells were transfected with pEGFP-AR and pEGFP-AR-V7 to express the prototype AR or AR-V7 and examined for the localization of GFP-tagged AR proteins in the presence or absence of 5 nmol/L R1 881. […] PC-3 cells were transfected with vector control (EGFP), a LBD-truncated AR mutant (EGFP-Q640X), AR-V7 (EGFP-AR-V7), and prototype AR (EGFP-AR) and subjected to luciferase assays and Western blot analysis following culturing in the presence or absence of R1 881. […] LNCaP cells were transfected with pcDNA-AR-V7 to express the untagged AR-V7 protein or the control pcDNA vector and cultured with or without 10 nmol/L R1 881 before being harvested for Western blot analysis or RNA extraction for expression microarray analysis. The genes shown were the top 20 ranked genes by fold induction following R1 881 treatment in pcDNA empty vector-transfected LNCaP cells. Expression ratios of the test sample versus the common reference (pcDNA empty vector-transfected LNCaP without R1 881) were represented by red (>1) and green colors (<1).
pEGFP-AR and pEGFP-Q640X, which contain the full-length prototype AR and AR Q640X LBD-truncated mutant cDNA, were kind gifts of Dr. Jocelyn Céraline (Université Strasbourg, Strasbourg, France). The cDNA encoding the full-length AR-V7 was inserted into the pEGFP-C3 vector to express the GFP-AR-V7 fusion protein. […]

[1] = system: androgen-responsive genes (KLK3, KLK2, NKX3-1, FKBP5, TMPRSS2); settings: LNCaP cells, absence of androgens
Source text: LNCaP cells were transfected with pcDNA-AR-V7 to express the untagged AR-V7 protein or the control pcDNA vector and cultured with or without 10 nmol/L R1 881 before being harvested for Western blot analysis or RNA extraction for expression microarray analysis. The genes shown were the top 20 ranked genes by fold induction following R1 881 treatment in pcDNA empty vector-transfected LNCaP cells. Expression ratios of the test sample versus the common reference (pcDNA empty vector-transfected LNCaP without R1 881) were represented by red (>1) and green colors (<1).

B1: AR-V7: androgen receptor variant lacking the ligand binding domain, SEQ ID NO: 8, expressed from transfected cDNA (protein)
chain: MEVQLGLGRVYPRPPSKTYRGAFQNLFQSVREVIQNPGPRHPEAASAAPPGASLLLLQQQQQQQQQQQQQQQQQQQQQQQETSPRQQQQQQGEDGSPQAHRRGPTGYLVLDEEQQPSQPQSALECHPERGCVPEPGAAVAASKGLPQQLPAPPDEDDSAAPSTLSLLGPTFPGLSSCSADLKDILSEASTMQLLQQQQQEAVSEGSSSGRAREASGAPTSSKDNYLGGTSTISDNAKELCKAVSVSMGLGVEALEHLSPGEQLRGDCMYAPLLGVPPAVRPTPCAPLAECKGSLLDDSAGKSTEDTAEYSPFKGGYTKGLEGESLGCSGSAAAGSSGTLELPSTLSLYKSGALDEAAAYQSRDYYNFPLALAGPPPPPPPPHPHARIKLENPLDYGSAWAAAAAQCRYGDLASLHGAGAAGPGSGSPSAAASSSWHTLFTAEEGQLYGPCGGGGGGGGGGGGGGGGGGGGGGGEAGAVAPYGYTRPPQGLAGQESDFTAPDVWYPGGMVSRVPYPSPTCVKSEMGPWMDSYSGPYGDMRLETARDHVLPIDYYFPPQKTCLICGDEASGCHYGALTCGSCKVFFKRAAEGKQKYLCASRNDCTIDKFRRKNCPSCRLRKCYEAGMTLGEKFRVGNCKHLKMTRP
cell growth (LNCaP cells): promotes androgen independent growth | PSA reporter gene expression (PSA reporter gene): induced PSA reporter gene expression in an androgen-independent manner | induction of androgen-responsive genes [1]: induced canonical androgen-responsive genes
